pEC50: −log10 of the molar value. Several values for one entry are separate records, joined by “and”; a condition that tells them apart may be missing. Equal values may be shown once. Read-outs that look alike come from different tables or passages of the source. Blank lines part the entries; values can stand above or below the substance they belong to. Bridge positions count the residues as written; N and C are the ends. Square brackets hold non-standard residues; d marks the D form. Ends that are not written are not given here.
Tests used:
mMC5R = target: T1, mMC5R (Mus musculus, UniProt P41149); experiment: AlphaScreen cAMP assay, agonist and inverse agonist activity, HEK293 cells stably expressing mMC5R; format: cell-based; conditions: Table 2; at 100 μM
T1 construct: expressed in transfected cells

mMC4R [1] = target: T2, mMC4R (Mus musculus, UniProt P56450); experiment: AlphaScreen cAMP assay, agonist activity, HEK293 cells stably expressing mMC4R; format: cell-based; set-up: expressed in transfected cells; conditions: Table 2; at 100 μM
mMC3R = target: T3, mMC3R (Mus musculus, UniProt P33033); experiment: AlphaScreen cAMP assay, agonist activity, HEK293 cells stably expressing mMC3R; format: cell-based; conditions: Table 2; at 100 μM
T3 construct: expressed in transfected cells

mMC1R = target: T4, mMC1R (Mus musculus, UniProt Q01727); experiment: AlphaScreen cAMP assay, agonist activity, HEK293 cells stably expressing mMC1R; format: cell-based; conditions: Table 2; at 100 μM, relative to NDP-MSH
T4 construct: expressed in transfected cells

mMC4R [2] = target: T2, mMC4R; conditions: Example 4; from Ki values
hMC1R = hMC1R (Homo sapiens, UniProt Q01726); conditions: inhibition of α-MSH activity, cited from earlier work
MC4R [3] = target: T5, MC4R (Homo sapiens, UniProt P32245); set-up: expressed in transfected cells; conditions: inhibition of α-MSH activity; cited from earlier work
Target sequence in this assay (P32245 whole entry): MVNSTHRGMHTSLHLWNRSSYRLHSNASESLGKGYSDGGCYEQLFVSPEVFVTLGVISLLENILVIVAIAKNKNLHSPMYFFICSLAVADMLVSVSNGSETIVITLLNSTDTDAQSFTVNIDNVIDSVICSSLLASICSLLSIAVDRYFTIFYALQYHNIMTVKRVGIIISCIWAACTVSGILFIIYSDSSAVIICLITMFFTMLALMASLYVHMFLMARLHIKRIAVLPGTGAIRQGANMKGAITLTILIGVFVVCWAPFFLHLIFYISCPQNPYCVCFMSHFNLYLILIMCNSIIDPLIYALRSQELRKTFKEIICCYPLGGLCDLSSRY

hMC3R = hMC3R (Homo sapiens, UniProt P41968); conditions: inhibition of α-MSH activity; cited from earlier work
MC4R [4] = target: T5, MC4R; conditions: previously reported; cited from earlier work
Target sequence in this assay (P32245 whole entry, species assumed): as the sequence (P32245 whole entry) above

MC1R = MC1R (Mus musculus, UniProt Q01727); conditions: previously reported; read-out: MC1R agonist potency; cited from earlier work
hMC4R-Kir7.1(M125R) = target: T6, hMC4R-Kir7.1(M125R) (Homo sapiens, UniProt P32245); conditions: up to 100 nM; literature; cited from earlier work
T6 construct: expressed in transfected cells; Kir7.1 tetracycline-induced)

rats = conditions: ICV administration into rats; cited from earlier work

T2 sequence (P56450 whole entry): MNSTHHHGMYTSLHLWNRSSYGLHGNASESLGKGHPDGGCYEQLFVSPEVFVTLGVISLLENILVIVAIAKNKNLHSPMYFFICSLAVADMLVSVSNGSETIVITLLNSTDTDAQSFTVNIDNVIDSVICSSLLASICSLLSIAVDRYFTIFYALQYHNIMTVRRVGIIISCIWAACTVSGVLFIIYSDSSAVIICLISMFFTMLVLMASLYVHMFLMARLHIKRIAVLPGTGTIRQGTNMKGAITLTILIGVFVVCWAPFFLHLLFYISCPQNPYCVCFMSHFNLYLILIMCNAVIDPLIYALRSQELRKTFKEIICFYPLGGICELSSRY
hMC1R, sequence (Q01726 whole entry): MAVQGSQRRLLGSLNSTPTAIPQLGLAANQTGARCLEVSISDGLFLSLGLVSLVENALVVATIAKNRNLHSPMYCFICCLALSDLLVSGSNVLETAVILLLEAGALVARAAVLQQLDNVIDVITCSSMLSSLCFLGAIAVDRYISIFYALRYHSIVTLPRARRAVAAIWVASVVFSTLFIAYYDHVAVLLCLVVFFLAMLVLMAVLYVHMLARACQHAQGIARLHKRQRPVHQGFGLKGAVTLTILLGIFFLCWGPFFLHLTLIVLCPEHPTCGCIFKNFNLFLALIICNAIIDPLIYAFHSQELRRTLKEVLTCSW
T6 sequence (P32245 whole entry, stated change not applied): as the sequence (P32245 whole entry) above
T1 sequence (P41149 whole entry): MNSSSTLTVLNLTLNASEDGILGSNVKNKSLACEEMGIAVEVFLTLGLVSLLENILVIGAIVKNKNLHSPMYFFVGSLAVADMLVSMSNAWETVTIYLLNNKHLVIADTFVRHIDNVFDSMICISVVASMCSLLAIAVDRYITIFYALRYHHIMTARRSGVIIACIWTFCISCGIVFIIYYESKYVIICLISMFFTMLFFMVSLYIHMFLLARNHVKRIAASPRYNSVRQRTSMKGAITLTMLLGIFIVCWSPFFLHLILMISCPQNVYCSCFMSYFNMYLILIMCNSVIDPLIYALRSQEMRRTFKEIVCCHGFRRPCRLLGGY
T4 sequence (Q01727 whole entry): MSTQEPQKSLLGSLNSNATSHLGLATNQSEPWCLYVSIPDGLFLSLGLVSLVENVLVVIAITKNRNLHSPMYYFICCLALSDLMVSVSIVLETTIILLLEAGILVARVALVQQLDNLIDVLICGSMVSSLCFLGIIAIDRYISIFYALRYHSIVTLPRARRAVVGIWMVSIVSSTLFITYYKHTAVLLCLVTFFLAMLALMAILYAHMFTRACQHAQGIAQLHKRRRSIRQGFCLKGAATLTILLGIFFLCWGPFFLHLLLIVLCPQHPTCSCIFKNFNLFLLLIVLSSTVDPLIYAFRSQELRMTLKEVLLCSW
MC1R, sequence (Q01727 whole entry): as above
hMC3R, sequence (P41968 whole entry): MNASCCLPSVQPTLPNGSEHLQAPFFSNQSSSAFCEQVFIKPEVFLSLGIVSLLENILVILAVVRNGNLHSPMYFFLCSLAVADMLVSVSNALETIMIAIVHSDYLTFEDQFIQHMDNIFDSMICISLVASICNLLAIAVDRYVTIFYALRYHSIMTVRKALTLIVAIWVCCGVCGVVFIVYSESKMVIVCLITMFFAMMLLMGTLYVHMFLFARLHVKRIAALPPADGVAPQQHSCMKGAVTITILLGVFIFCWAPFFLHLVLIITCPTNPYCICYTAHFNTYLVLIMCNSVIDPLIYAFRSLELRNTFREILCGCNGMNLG
T3 sequence (P33033 whole entry): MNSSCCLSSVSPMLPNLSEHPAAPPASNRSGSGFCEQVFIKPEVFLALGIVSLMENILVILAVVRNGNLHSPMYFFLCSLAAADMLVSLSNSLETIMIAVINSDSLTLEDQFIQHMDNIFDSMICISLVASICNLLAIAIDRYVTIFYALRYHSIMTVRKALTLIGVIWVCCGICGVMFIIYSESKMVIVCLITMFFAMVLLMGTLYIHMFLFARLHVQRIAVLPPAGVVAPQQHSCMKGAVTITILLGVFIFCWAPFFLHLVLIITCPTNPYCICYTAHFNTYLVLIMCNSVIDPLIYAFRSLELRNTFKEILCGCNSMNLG

mMC5R percent maximal stimulatory response (mMC5R): 25% @
mMC4R percent maximal stimulatory response (mMC4R [1]): 35% @
mMC3R percent maximal stimulatory response (mMC3R): 35% @
mMC1R percent maximal stimulatory response (mMC1R): 70% @ 100 μM
fold selectivity for the mMC4R over the mMC3R (mMC4R [2]): 600 fold and 630 fold
Substance: 20 (cyclo(PRFFNFF[dP]); SMILES N=C(N)NCCC[C@@H]1NC(=O)[C@@H]2CCCN2C(=O)[C@H]2CCCN2C(=O)[C@H](Cc2ccccc2)NC(=O)[C@H](Cc2ccccc2)NC(=O)[C@H](CC(N)=O)NC(=O)[C@H](Cc2ccccc2)NC(=O)[C@H](Cc2ccccc2)NC1=O) [Peptide 20]

Substance: ASP-YY: synthesized ASP variant with two residues changed to the homologous AGRP residues (KKVVRPRTPLSAPCVATRNSCKPPAPACCDPCASCYCRFFRSACYCRVLSLNC; UniProt P42127 80-132, looked up, variant Q115Y S124Y)
functional antagonist potency, hMC1R (hMC1R): 3.9 nM
functional antagonist potency, hMC1R (hMC1R; listed as Agouti-YY): 4.0 nM
functional antagonist potency, hMC4R (MC4R [3]): 0.5 nM
functional antagonist potency, hMC3R (hMC3R): 2.6 nM

Substance: H-DPAATAYCRFFNAFCYARKL-OH (disulfide 8-15) [20 residue peptide]
MC4R antagonist pA2 (MC4R [4]): 6.9
pEC50 (MC1R): 6.02

Substance: mini-AGRP: truncated form of AGRP (AGRP87-120, C105A) (CVRLHESCLGQQVPCCDPAATCYCRFFNAFCYCR; ends and bridges not checked; cysteine pairing not given here; UniProt O00253 87-120, looked up, fragment C105A)
effect on thallium flux (hMC4R-Kir7.1(M125R)): did not affect thallium flux at concentrations up to 100 nM
increase of 24 h food intake above saline (rats): 21%

— patent US11332499B2, “Cyclic peptides and methods of use thereof” (Regents of the University of Minnesota, priority 2018, dated 2022)
